Reference: patent US20240174727A1, “LONG-ACTING NATRIURETIC PEPTIDES AND USES THEREOF” (Eli Lilly and Company, priority 2022, published 2024)
Where a chain is given by its changes, count along the chain named.

T1: human NPRA (human, UniProt P16066 33-1061)
T1 sequence (looked up): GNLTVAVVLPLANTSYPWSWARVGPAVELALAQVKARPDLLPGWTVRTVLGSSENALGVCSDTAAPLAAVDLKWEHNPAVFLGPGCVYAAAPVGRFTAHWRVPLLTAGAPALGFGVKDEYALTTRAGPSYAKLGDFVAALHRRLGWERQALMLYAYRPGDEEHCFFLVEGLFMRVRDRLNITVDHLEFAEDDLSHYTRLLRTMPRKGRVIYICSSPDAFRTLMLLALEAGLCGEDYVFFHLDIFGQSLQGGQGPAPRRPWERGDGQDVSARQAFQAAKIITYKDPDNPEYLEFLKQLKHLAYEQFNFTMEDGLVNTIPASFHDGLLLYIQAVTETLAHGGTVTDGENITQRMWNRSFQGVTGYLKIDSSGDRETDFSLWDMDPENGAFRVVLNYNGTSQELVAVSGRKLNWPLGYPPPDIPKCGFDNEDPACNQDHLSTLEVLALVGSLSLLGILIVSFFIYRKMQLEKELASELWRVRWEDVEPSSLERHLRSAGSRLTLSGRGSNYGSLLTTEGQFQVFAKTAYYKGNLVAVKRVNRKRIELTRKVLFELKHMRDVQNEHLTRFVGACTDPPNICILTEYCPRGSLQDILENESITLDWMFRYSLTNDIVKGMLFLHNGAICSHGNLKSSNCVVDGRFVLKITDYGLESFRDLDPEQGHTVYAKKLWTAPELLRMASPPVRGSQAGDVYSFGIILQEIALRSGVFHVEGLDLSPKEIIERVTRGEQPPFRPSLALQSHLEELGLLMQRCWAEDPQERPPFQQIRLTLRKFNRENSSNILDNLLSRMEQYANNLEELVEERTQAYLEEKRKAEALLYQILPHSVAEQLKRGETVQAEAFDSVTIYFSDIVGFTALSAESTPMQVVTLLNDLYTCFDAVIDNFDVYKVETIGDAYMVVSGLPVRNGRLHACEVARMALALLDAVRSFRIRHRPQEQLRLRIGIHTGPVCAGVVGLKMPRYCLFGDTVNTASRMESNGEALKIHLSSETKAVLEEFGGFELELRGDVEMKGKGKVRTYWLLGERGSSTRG

B1: Example 97 (peptide)
peptide: SXRRSSCFGGRIDRIGHYSGLGCPSFRHGGPPSXKPPPK
modifications: HOOC-(CH2)18-CO-(γGlu)-EKEKEKG-(AEEA)6-S-4Pal-RRSS[CFGGRIDRIGHYSGLGC]PSFRHGGPPS-Aib-KPPPK-NH2; thioacetal linkage between the bracketed Cys
B2: Example 77 (peptide)
peptide: EKXRSSCFGGRIDRIGHYSGLGCPSFRHGGKSSGAPPPS
modifications: HOOC-(CH2)18-CO-(γGlu)-EKEKEKG-PEG12-EK-βAla-RSS[CFGGRIDRIGHYSGLGC]PSFRHGGKSSGAPPPS-NH2; thioacetal linkage between the bracketed Cys
B3: Example 78 (peptide)
peptide: B2 peptide
modifications: HOOC-(CH2)18-CO-(γGlu)-EKEKEKG-PEG24-EK-βAla-RSS[CFGGRIDRIGHYSGLGC]PSFRHGGKSSGAPPPS-NH2; thioacetal linkage between the bracketed Cys
B4: Example 50 (peptide)
peptide: XEKEKEKGEKGRSSCFGGRIDRIGHYSGLGCPSFRHKGGPSSGAPPPS
modifications: HOOC-(CH2)18-CO-(γGlu)-EKEKEKGEKGRSS[CFGGRIDRIGHYSGLGC]PSFRHKGGPSSGAPPPS-NH2; disulfide linkage between the bracketed Cys
B5: Example 45 (peptide)
peptide: XEKEKEKGEKGRSSCFGGKIDRIGHYSGLGCPSFRHGGPSSGAPPPS
modifications: HOOC-(CH2)18-CO-(γGlu)-EKEKEKGEKGRSS[CFGGKIDRIGHYSGLGC]PSFRHGGPSSGAPPPS-NH2; disulfide linkage between the bracketed Cys
B6: Example 85 (peptide)
peptide: B5 peptide with G11X, G18K, K19R, Y26Q, P39K
modifications: HOOC-(CH2)18-CO-(γGlu)-EKEKEKGEK-βAla-RSS[CFGKRIDRIGHQSGLGC]PSFRHGGKSSGAPPPS-NH2; thioacetal linkage between the bracketed Cys
B7: Example 49 (peptide)
peptide: B5 peptide with G11E, K19R
modifications: HOOC-(CH2)18-CO-(γGlu)-EKEKEKGEKERSS[CFGGRIDRIGHYSGLGC]PSFRHGGPSSGAPPPS-NH2; disulfide linkage between the bracketed Cys

Molecular target: T1, human NPRA
Test: cell-based or functional assay

| Binder | cGMP Assay (EC50, pM) w/Casein [pM] | cGMP Assay (EC50, pM) w/BSA [pM] |
| --- | --- | --- |
| B1 | 720 |  |
| B2 | 1270 |  |
| B3 |  | 19700 |
| B4 | 614 |  |
| B5 |  | 25200 |
| B6 | 361 |  |
| B7 | 299 |  |
